# Positions count from the first letter of the chain named. Names and notes keep the numbering of the source.
# T1: Cyno PD-L1 (cynomolgus, UniProt Q9NZQ7 19-127 (human entry), limits assumed)
# T1 construct: also called cynomolgus PD-L1
# T1 chain: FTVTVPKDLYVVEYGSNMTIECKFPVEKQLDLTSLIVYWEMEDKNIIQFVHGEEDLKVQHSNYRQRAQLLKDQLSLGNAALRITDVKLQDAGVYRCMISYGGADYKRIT
# B1: CD3-IgG-001 (antibody, V domains shown)
# VH: EVQLVESGGGLVQPGGSLRLSCAASGFTFNTYAMNWVRQAPGKGLEWVARIRSKYNNYATYYADSVKDRFTISRDDSQSILYLQMNSLKTEDTAVYYCVRHGNFGNSYVSWFAYWGQGTLVTVSS
# VL: QAVVTQEPSLTVSPGGTVTLTCRSSTGAVTTSNYANWVQQKPDHLPRALIGGTNKRAPGTPARFSGSLLGDKAALTLSGVQPEDEAEYYCALWYSNLWVFGGGTKLTVL
# B2: mouse SP34 IgG (antibody, V domains shown)
# VH: B1 VH with G15K, R19K, S87N, V95M
# VL: QAVVTQESALTTSPGETVTLTCRSSTGAVTTSNYANWVQEKPDHLFTGLIGGTNKRAPGVPARFSGSLIGDKAALTITGAQTEDEAIYFCALWYSNLWVFGGGTKLTVL
# B3: CD3-IgG-002 (antibody, V domains shown)
# VH: B1 VH with A49G, D68G, Q78K, S79N, I80S, V99A
# VL: B1 VL with T60V, L77I, V80A, E87I
# B4: LB218 (intact) (bispecific antibody, human IgG1, kappa, lambda)
# heavy: not shown
# light: not shown
# chain: SCPPCPAPEAAGAPSVFLFPPKPKDTLMISRTPEVTCVVVDVSHEDPEVKFNWYVDGVEVHNAKTKPREEQYNSTYRVVSVLTVLHQDWLNGKEYKCKVSNKALPAPIEKTISKAKGQPREPQVCTLPPSRDELTKNQVSLSCAVKGFYPSDIAVEWESNGQPENNYKTTPPVLDSDGSFFLVSKLTVDKSRWQQGNVFSCSVMHEALHNHYTQKSLSLSPGK
# notes: Asymmetric LockBody, uncleaved; also called intact LB218
# B5: LB213 (intact) (bispecific antibody, human IgG1, kappa, lambda)
# heavy: not shown
# light: not shown
# chain: B4 chain
# notes: Asymmetric LockBody, uncleaved; also called intact LB213
# B6: LB213 after incubation with MMP12 (bispecific antibody)
# heavy: not shown
# light: not shown
# chain: B4 chain
# notes: Digest of LB213 with human MMP12; a mixture of products; also called MMP12 treated LB213; digested LB213
# B7: LB218 after incubation with MMP12 (bispecific antibody)
# heavy: not shown
# light: not shown
# chain: B4 chain
# notes: Digest of LB218 with human MMP12; a mixture of products; also called MMP12 treated LB218; digested LB218
# B8: Anti-PD-L1 Fab mut-03 (S104W) (Fab, V domains shown)
# VH: QVQLVQSGAEVKKPGSSVKVSCKTSGDTFSTYAISWVRQAPGQGLEWMGGIIPIFGKAHYAQKFQGRVTITADESTSTAYMELSSLRSEDTAVYFCARKFHFVWGSPFGMDVWGQGTTVTVSS
# VL: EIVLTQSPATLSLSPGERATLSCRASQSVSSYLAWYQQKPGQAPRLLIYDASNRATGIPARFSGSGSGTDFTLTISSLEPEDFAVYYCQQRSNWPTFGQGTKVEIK
# notes: Fab format; VH variant with WT VL; constant domains of the Fab not specified; also called mut-3
# B9: Anti-PD-L1 Fab mut-04 (I54K) (Fab, V domains shown)
# VH: B8 VH with I54K, W104S
# VL: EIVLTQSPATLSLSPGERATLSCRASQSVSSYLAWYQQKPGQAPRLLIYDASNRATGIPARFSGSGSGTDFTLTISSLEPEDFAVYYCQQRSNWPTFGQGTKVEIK
# notes: Fab format; VH variant with WT VL; constant domains of the Fab not specified; also called mut-4
# B10: Anti-PD-L1 Fab mut-06 (S104R) (Fab, V domains shown)
# VH: B8 VH with W104R
# VL: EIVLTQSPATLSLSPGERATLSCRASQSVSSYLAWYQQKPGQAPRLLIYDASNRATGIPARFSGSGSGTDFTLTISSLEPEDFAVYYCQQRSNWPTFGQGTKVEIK
# notes: Fab format; VH variant with WT VL; constant domains of the Fab not specified; also called mut-6; Mut-6
# B11: Anti-PD-L1 Fab mut-07 (I54W) (Fab, V domains shown)
# VH: B8 VH with I54W, W104S
# VL: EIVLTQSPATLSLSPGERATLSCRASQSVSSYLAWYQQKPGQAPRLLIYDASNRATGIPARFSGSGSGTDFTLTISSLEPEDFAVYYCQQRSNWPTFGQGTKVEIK
# notes: Fab format; VH variant with WT VL; constant domains of the Fab not specified; also called mut-7
# B12: Anti-PD-L1 Fab mut-08 (K57R) (Fab, V domains shown)
# VH: B8 VH with K57R, W104S
# VL: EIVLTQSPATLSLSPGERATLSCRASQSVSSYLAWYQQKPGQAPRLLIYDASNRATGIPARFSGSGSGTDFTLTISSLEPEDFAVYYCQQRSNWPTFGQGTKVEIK
# notes: Fab format; VH variant with WT VL; constant domains of the Fab not specified; also called mut-8
# B13: Anti-PD-L1 Fab mut-14 (S104D) (Fab, V domains shown)
# VH: B8 VH with W104D
# VL: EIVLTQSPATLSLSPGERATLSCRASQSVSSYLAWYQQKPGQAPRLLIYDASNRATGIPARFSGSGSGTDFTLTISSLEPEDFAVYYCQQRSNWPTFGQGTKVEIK
# notes: Fab format; VH variant with WT VL; constant domains of the Fab not specified
# B14: Anti-PD-L1 Fab mut-15 (K57W) (Fab, V domains shown)
# VH: B8 VH with K57W, W104S
# VL: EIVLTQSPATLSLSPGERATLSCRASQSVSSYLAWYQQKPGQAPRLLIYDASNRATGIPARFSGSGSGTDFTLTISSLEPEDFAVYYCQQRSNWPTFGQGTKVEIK
# notes: as for B13
# B15: Anti-PD-L1 Fab mut-20 (I54Y) (Fab, V domains shown)
# VH: B8 VH with I54Y, W104S
# VL: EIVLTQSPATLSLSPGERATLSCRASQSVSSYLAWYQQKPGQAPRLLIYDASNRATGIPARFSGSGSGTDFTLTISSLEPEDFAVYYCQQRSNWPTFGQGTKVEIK
# notes: as for B13
# B16: Anti-PD-L1 Fab mut-22 (A33H) (Fab, V domains shown)
# VH: B8 VH with A33H, W104S
# VL: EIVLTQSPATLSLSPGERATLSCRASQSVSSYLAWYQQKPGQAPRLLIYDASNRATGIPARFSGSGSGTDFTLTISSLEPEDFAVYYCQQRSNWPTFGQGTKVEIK
# notes: as for B13
# B17: Anti-PD-L1 Fab mut-23 (G56H) (Fab, V domains shown)
# VH: B8 VH with G56H, W104S
# VL: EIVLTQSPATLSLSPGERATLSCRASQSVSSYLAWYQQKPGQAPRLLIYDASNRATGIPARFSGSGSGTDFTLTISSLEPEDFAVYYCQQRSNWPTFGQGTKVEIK
# notes: as for B13
# B18: Anti-PD-L1 Fab mut-27 (K57D) (Fab, V domains shown)
# VH: B8 VH with K57D, W104S
# VL: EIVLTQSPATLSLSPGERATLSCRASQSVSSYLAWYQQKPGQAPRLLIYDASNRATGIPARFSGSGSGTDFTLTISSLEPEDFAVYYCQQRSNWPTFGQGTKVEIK
# notes: as for B13
# B19: Anti-PD-L1 Fab mut-28 (S104N) (Fab, V domains shown)
# VH: B8 VH with W104N
# VL: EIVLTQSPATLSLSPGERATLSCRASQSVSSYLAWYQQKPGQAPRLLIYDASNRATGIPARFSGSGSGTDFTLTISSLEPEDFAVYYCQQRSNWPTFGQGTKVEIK
# notes: as for B13
# B20: Anti-PD-L1 Fab mut-34 (K57M) (Fab, V domains shown)
# VH: B8 VH with K57M, W104S
# VL: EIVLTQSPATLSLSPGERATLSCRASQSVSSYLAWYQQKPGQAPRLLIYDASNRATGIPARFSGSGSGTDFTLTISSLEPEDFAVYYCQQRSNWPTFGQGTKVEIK
# notes: as for B13
# B21: Anti-PD-L1 Fab mut-39 (K57F) (Fab, V domains shown)
# VH: B8 VH with K57F, W104S
# VL: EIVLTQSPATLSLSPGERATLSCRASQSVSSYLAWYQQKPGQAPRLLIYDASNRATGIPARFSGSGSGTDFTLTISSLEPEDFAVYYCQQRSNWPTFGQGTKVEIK
# notes: as for B13
# B22: Anti-PD-L1 Fab mut-42 (I54Q) (Fab, V domains shown)
# VH: B8 VH with I54Q, W104S
# VL: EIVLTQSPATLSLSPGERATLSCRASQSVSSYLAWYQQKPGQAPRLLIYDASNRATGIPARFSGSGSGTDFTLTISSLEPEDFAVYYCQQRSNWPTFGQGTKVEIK
# notes: as for B13
# B23: Anti-PD-L1 Fab mut-43 (G56Q) (Fab, V domains shown)
# VH: B8 VH with G56Q, W104S
# VL: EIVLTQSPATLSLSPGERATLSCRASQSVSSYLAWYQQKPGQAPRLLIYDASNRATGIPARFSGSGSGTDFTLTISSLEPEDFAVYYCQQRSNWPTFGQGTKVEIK
# notes: as for B13
# B24: Anti-PD-L1 Fab mut-44 (I52F) (Fab, V domains shown)
# VH: B8 VH with I52F, W104S
# VL: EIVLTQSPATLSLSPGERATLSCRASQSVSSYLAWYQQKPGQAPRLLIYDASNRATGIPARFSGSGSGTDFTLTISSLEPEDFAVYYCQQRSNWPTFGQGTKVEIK
# notes: as for B13
# B25: Anti-PD-L1 Fab mut-46 (I54R) (Fab, V domains shown)
# VH: B8 VH with I54R, W104S
# VL: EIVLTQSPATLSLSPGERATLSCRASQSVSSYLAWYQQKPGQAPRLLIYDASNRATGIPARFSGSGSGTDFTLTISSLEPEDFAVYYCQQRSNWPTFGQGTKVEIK
# notes: as for B13
# B26: Anti-PD-L1 Fab mut-47 (T31R) (Fab, V domains shown)
# VH: B8 VH with T31R, W104S
# VL: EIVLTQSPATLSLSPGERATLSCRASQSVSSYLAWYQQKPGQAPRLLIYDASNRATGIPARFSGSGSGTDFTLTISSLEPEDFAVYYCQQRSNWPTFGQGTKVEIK
# notes: as for B13
# B27: Anti-PD-L1 Fab mut-48 (T31Q) (Fab, V domains shown)
# VH: B8 VH with T31Q, W104S
# VL: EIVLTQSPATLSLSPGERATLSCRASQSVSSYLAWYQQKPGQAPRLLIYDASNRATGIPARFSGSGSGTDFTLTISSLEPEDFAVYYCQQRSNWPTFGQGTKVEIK
# notes: as for B13
# B28: Anti-PD-L1 Fab mut-49 (G56N) (Fab, V domains shown)
# VH: B8 VH with G56N, W104S
# VL: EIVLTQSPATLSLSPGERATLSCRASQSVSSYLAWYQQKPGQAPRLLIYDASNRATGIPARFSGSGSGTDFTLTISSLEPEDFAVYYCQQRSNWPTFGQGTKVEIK
# notes: as for B13
# B29: Anti-PD-L1 Fab mut-50 (Q62E) (Fab, V domains shown)
# VH: B8 VH with Q62E, W104S
# VL: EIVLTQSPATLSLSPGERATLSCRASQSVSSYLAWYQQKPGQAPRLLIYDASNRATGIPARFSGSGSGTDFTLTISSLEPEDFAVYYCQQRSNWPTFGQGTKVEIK
# notes: as for B13
# B30: Anti-PD-L1 Fab mut-51 (S104R, G56Q, T31Q) (Fab, V domains shown)
# VH: B8 VH with T31Q, G56Q, W104R
# VL: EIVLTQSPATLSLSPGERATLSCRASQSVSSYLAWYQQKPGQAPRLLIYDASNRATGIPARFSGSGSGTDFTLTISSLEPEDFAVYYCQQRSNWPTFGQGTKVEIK
# notes: as for B13
# B31: Anti-PD-L1 Fab mut-52 (S104R, G56Q) (Fab, V domains shown)
# VH: B8 VH with G56Q, W104R
# VL: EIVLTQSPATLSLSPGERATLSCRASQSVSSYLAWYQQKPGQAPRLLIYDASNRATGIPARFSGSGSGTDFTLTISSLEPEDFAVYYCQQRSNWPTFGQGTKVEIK
# notes: as for B13
# B32: Anti-PD-L1 Fab mut-53 (S104R, T31Q) (Fab, V domains shown)
# VH: B8 VH with T31Q, W104R
# VL: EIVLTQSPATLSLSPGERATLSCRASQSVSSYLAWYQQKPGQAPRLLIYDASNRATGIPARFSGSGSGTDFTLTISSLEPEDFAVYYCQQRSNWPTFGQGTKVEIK
# notes: as for B13
# B33: Anti-PD-L1 Fab mut-54 (G56Q, T31Q) (Fab, V domains shown)
# VH: B8 VH with T31Q, G56Q, W104S
# VL: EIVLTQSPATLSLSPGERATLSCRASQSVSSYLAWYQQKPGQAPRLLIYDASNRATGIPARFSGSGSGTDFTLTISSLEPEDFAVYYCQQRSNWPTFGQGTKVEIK
# notes: as for B13
# Assays:
# [1] = biological target: human CD3 on Jurkat cells (human, UniProt P07766 23-207); test: cell-based or functional assay
# Sequence of human CD3 on Jurkat cells (P07766 23-207): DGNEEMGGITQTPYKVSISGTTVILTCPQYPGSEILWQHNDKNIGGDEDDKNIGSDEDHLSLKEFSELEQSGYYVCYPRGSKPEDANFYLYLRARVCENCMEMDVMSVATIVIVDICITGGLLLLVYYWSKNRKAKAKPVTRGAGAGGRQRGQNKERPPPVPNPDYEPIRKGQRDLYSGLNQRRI
# Human PD-L1 [2] = biological target: T2, Human PD-L1 (human, UniProt Q9NZQ7 19-127, limits assumed); test: ELISA on plate-coated human PD-L1, corrected absorbance 450-570 nm
# T2 construct: also called huPD-L1; hPD-L1
# Method: For ELISA binding assays, 384 well or 96 well plates were coated with […] and incubated overnight at 4° C., protected from light. Plates were washed twice with PBS/0.05% Tween 20 before blocking with block buffer (3% milk protein in PBS) for 1 hour at room temperature. Next, test agent or controls were loaded and incubated for 1 hour at room temperature. Plates were then washed three times with PBS/0.05% Tween 20. Finally, HRP conjugated secondary antibody, diluted 1/5,000 in block buffer, was added and incubated for 1 hour at room temperature. Plates were again washed three times with PBS/0.05% Tween before addition of TMB substrate and incubation for 6 minutes at room temperature. Subsequently, the reaction was stopped with stop solution. Absorbance was read at 450 nm and 570 nm. Absorbance at 570 nm was subtracted from absorbance at 450 nm for each plate.
# Human PD-L1 [3] = biological target: T2, Human PD-L1; test: ELISA on plate-coated human PD-L1, sample pre-incubated with MMP12 for 30 min
# Human PD-L1 [4] = biological target: T2, Human PD-L1; test: ELISA on plate-coated human PD-L1, sample pre-incubated with MMP12 for 60 min
# Human PD-L1 [5] = biological target: T2, Human PD-L1; test: ELISA on plate-coated human PD-L1, sample pre-incubated with MMP12 for 5 min
# Human PD-L1 [6] = biological target: T2, Human PD-L1; test: ELISA on plate-coated human PD-L1, sample pre-incubated with MMP12 for 15 min
# Human PD-L1 [7] = biological target: T2, Human PD-L1; test: ELISA on plate-coated human PD-L1, sample pre-incubated with MMP12 for 5 min; remark: listed apart in the source
# Human PD-L1 [8] = biological target: T2, Human PD-L1; test: ELISA on plate-coated human PD-L1, sample pre-incubated with MMP12 for 60 min; remark: listed apart in the source
# Human PD-L1 [9] = biological target: T2, Human PD-L1; test: ELISA on plate-coated human PD-L1, sample pre-incubated with MMP12 for 30 min; remark: listed apart in the source
# Human PD-L1 [10] = biological target: T2, Human PD-L1; test: ELISA on plate-coated human PD-L1, sample pre-incubated with MMP12 for 15 min; remark: listed apart in the source
# Human PD-L1 [11] = biological target: T2, Human PD-L1; test: SPR, Fab
# Cyno PD-L1 = biological target: T1, Cyno PD-L1; test: SPR, Fab
Binder,Kd (Human PD-L1 [11]) [nM],Kd (Cyno PD-L1) [nM],also measured
B1,,,"EC50, CD3 activation signal in Jurkat reporter cell line (luciferase) [1]: 0.2 nM"
B2,,,"EC50, CD3 activation signal in Jurkat reporter cell line (luciferase) [1]: 0.2 nM"
B3,,,"EC50, CD3 activation signal in Jurkat reporter cell line (luciferase) [1]: 0.9 nM; fold difference of apparent EC50 against SP34 / Anti-CD3-IgG-001, Jurkat reporter [1]: ~5 fold"
B4,,,EC50 (read off the curve) (Human PD-L1 [2]): ~0.2 nM
B5,,,EC50 (read off the curve) (Human PD-L1 [2]): ~0.2 nM
B6,,,EC50 (read off the curve) (Human PD-L1 [3]): ~0.3 nM; EC50 (read off the curve) (Human PD-L1 [4]): ~0.5 nM; EC50 (read off the curve) (Human PD-L1 [5]): ~0.2 nM; EC50 (read off the curve) (Human PD-L1 [6]): ~0.2 nM
B7,,,EC50 (read off the curve) (Human PD-L1 [7]): ~0.1 nM; EC50 (read off the curve) (Human PD-L1 [8]): ~0.7 nM; EC50 (read off the curve) (Human PD-L1 [9]): ~0.5 nM; EC50 (read off the curve) (Human PD-L1 [10]): ~0.2 nM
B8,1.1,13.6,
B9,0.857,10.8,
B10,0.0857,2.86,
B11,4.25,143,
B12,0.489,6.48,
B13,3.36,29.3,
B14,1.69,10.5,
B15,0.875,15.9,
B16,1.84,20,
B17,0.195,3.02,

Binder,Kd (Human PD-L1 [11]) [nM],Kd (Cyno PD-L1) [nM],also measured
B18,5.58,,binding result (Cyno PD-L1): no binding
B19,0.501,5.51,
B20,3.58,5.82,
B21,1.54,3.96,
B22,3.99,5.98,
B23,0.204,2.73,
B24,0.542,6.85,
B25,1.04,12.7,
B26,0.594,9.32,
B27,0.249,3.24,
B28,0.224,3.53,
B29,0.124,4.82,
B30,0.0157,0.18,
B31,0.0214,0.298,
B32,0.0217,0.288,
B33,0.0722,0.631,

# Reference: patent US20250109206A1 (CENTESSA PHARMACEUTICALS UK, published 2025)
